Experimental data taken from publication doi:10.1101/2025.03.24.644895.

Molecular target: Avi-tagged human eIF4A1 full length (human) (UniProt P60842)
Assay: SPR

Avi-tagged human eIF4A1 full length (human), sequence (P60842 whole entry): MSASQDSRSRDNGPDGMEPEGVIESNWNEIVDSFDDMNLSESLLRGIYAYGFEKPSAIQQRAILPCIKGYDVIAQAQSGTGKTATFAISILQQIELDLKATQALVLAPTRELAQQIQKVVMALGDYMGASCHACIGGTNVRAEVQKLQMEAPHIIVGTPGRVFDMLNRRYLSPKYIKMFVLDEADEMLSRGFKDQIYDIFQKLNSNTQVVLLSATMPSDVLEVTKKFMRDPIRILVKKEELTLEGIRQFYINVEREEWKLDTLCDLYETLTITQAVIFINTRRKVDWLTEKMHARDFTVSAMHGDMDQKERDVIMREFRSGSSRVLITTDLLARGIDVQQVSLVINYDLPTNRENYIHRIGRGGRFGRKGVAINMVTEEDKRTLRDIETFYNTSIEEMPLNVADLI

Substance: eIF4G-MIF (middle domain of eIF4G, residues 712-1011) (domain or fragment)
- fold increase in binding affinity with hippuristanol against no compound: 5 fold
